Laboratory results reported in patent publication US20150118233A1 (Ablynx, published 2015).
Residue numbers refer to the chain shown, from its start.

B1: Nanobody 191D3 (VHH)
VHH: EVQLVESGGGLVQAGGSLRLSCEASGRTYSRYGMGWFRQAPGKEREFVAAVSRLSGPRTVYADSVKGRFTISRDNAENTVYLQMNSLKPEDTAVYTCAAELTNRNSGAYYYAWAYDYWGQGTQVTVSS
B2: Nanobody 1E4 (VHH)
VHH: B1 VHH with Y29F, R31S, S106P, A112T
B3: Nanobody NC41 (VHH)
VHH: EVQLVESGGGLVQAGGSLSISCAASGGSLSNYVLGWFRQAPGKEREFVAAINWRGDITIGPPNVEGRFTISRDNAKNTGYLQMNSLAPDDTAVYYCGAGTPLNPGAYIYDWSYDYWGRGTQVTVSS
B4: Nanobody 15H8 (VHH)
VHH: EVQLVESGGGLVQAGGSLRLSCAASGRSFSNYVLGWFRQAPGKEREFVAAISFRGDSAIGAPSVEGRFTISRDNAKNTGYLQMNSLVPDDTAVYYCGAGTPLNPGAYIYDWSYDYWGRGTQVTVSS
B5: Nanobody 191E4 (VHH)
VHH: EVQLVESGGGLVQAGGSLRLSCAASGPTFSADTMGWFRQAPGKEREFVATIPWSGGIAYYSDSVKGRFTMSRDNAKNTVDLQMNSLKPEDTALYYCAGSSRIYIYSDSLSERSYDYWGQGTQVTVSS
B6: NC41v06 (VHH)
VHH: EVQLLESGGGLVQPGGSLRLSCAASGGSLSNYVLGWFRQAPGKGREFVAAINWRDDITIGPPNVEGRFTISRDNAKNTLYLQMNSLRPEDTAVYYCGAGTPLNPGAYIYDWSYDYWGQGTLVTVSS
B7: NC41v17 (VHH)
VHH: B6 VHH with D55G, A75S
B8: Nanobody NC23 (VHH)
VHH: EVQLVESGGGLVQPGGSLRLSCAASGRTFSSIAMGWFRQAPGKEREFVAAISWSRGRTFYADSVKGRFIISRDDAANTAYLQMNSLKPEDTAVYYCAVDTASWNSGSFIYDWAYDHWGQGTQVTVSS
B9: Nanobody 15B3 (VHH)
VHH: EVQLVESGGGLVQPGGSLRLSCAASGLTLDYYALGWFRQAPGKEREGVSCISSSDHSTTYTDSVKGRFTISWDNAKNTLYLQMNSLKPGDTAVYYCAADPALGCYSGSYYPRYDYWGQGTQVTVSS
B10: Nanobody 7B2 (VHH)
VHH: EVQLVESGGGLVQAGDSLRLSCAASGRTFSSYAMGWFRQAPGKEREFVAAISWSDGSTYYADSVKGRFTISRDNAKNTVYLQMNSLKPEDTAVYYCAADLTSTNPGSYIYIWAYDYWGQGTQVTVSS

Legend:
Test in all cases: cell-based or functional assay
[1] = target: F protein of hRSV strain A-2 (hRSV strain A-2)
[2] = target: F protein of hRSV strain B-1 (hRSV strain B-1)
[3] = target: F protein of hRSV strain B-1 (hRSV strain B-1); remark: listed apart in the source
[4] = target: F protein of hRSV strain Long (hRSV strain Long)

Binder | RSV neutralization IC50 [1] [nM] | RSV neutralization IC50 [2] [nM] | Neutralization IC50 (first assay) [3] [nM] | further results
B1 | 227 | – | – | –
B2 | 298 | – | – | –
B3 | 26 | 4000 | 4710 | Neutralization IC50 (second assay) [3]: 3290 nM
B4 | 218 | 2340 | – | –
B5 | – | 4330 | – | –
B6 | – | – | 806 | –
B7 | – | – | 677 | Neutralization IC50 (second assay) [3]: 346 nM; Neutralization IC50 (first assay) [4]: 249 nM; Neutralization IC50 (second assay) [4]: 149 nM
B8 | 109 | – | – | –
B9 | – | 1270 | – | –
B10 | 177 | 2690 | – | –
